Data on one substance can be found in article doi:10.1101/2024.09.03.610921.

In this assay the target is RAGE^23-341-His-FLAG (extracellular part of RAGE) (human (cDNA from HEK293T cells)) (UniProt Q15109). Put plainly: pull-down.
Chain of RAGE^23-341-His-FLAG (extracellular part of RAGE) (human (cDNA from HEK293T cells)) (Q15109 23-341): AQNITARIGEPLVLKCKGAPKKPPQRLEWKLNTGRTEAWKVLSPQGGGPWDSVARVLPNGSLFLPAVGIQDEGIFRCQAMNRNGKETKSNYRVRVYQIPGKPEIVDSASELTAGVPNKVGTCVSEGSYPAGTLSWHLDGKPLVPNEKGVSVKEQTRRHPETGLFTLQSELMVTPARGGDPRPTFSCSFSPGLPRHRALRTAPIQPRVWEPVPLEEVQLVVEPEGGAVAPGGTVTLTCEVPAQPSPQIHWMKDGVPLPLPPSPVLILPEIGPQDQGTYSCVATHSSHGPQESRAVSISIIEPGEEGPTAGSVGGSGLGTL

“core histone complex purified from bovines” returned a fold of histone complex precipitated, against RAGE^124-341 of 2.4 fold.
